Patent US20090169520A1 (YISSUM RESEARCH DEVELOPMENT COMPANY OF THE HEBREW …, published 2009)

B1: ASP63 (synthetic AChE-S C-terminal peptide, residues 548-610 of hAChE) (peptide)
peptide: PLEVRRGLRAQACAFWNRFLPKLLSATDTLDEAERQWKAEFHRWSSYMVHWKNQFDHYSKQDR

target: synthetic Aβ (1-40) peptide (Biosource) (UniProt P05067 672-711); test: cell-based or functional assay
Sequence (P05067 672-711 limits assumed): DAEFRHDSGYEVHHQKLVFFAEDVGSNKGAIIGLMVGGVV

Lag (fold change) of Aβ fibrillation against no addition | Lag (h) before onset of Aβ fibrillation | Rate (fold change) of Aβ fibrillation against no addition | Binder
1.1 fold | 4.4 h | 0.8 fold | DTLDEAERQWKAEFHRWSSYMVHWKNQFDHYSKQDRCSDL [ASP40 (synthetic AChE-S C-terminal peptide, residues 575-614 of hAChE)]
> 1.9 fold | > 7.5 h | 0.4 fold | GNIDEAEWEWKAGFHRWNNYMMDWKNQFNDYTSKKESCVGL [BSP41 (synthetic BChE C-terminal peptide, residues 562-602 of hBChE)]
1.5 fold | 5.9 h | 0.7 fold | B1
